According to publication doi:10.1101/2021.09.24.461537 (bioRxiv, 2021):

Experiments:
Test in all cases: ITC
[1] = target: Drosophila Su(H) (98-523) WT (Drosophila) (UniProt P28159)
[2] = target: mouse Rbpj (53-474) K195E (mouse, UniProt P31266 53-474, K195E)
mouse Rbpj (53-474) WT = mouse Rbpj (53-474) WT (mouse, UniProt P31266 53-474)
mouse Rbpj (53-474) E89G = mouse Rbpj (53-474) E89G (mouse, UniProt P31266 53-474, E89G)
Sequence of mouse Rbpj (53-474) E89G (P31266 53-474 E89G): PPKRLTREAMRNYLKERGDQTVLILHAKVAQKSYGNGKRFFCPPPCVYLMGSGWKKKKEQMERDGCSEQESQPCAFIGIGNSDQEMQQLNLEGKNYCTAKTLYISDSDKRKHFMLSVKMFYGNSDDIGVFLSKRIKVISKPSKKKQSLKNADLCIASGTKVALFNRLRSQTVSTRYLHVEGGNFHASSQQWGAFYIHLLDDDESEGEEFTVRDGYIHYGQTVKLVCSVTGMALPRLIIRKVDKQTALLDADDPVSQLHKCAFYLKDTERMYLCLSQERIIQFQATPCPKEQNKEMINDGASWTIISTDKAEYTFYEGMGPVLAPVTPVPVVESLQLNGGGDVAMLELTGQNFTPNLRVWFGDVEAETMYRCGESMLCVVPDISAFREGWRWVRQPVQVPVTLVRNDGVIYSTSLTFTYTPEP

Sequence of mouse Rbpj (53-474) K195E (P31266 53-474 K195E): as the sequence (P31266 53-474 E89G) above, with G37E, K143E counted along it
Sequence of mouse Rbpj (53-474) WT (P31266 53-474): as the sequence (P31266 53-474 E89G) above, with G37E counted along it

Molecule	Kd [1]	Kd [2]	Kd (mouse Rbpj (53-474) WT)	Kd (mouse Rbpj (53-474) E89G)
Drosophila Notch RAM domain peptide (residues 1763-1790)	187 nM			
SHARP residues 2776-2833 (domain or fragment) RASANENSRFHPGSMPVIDDRPADAGSGAGLRVNTSEGVVLLSYSGQKTEGPQRISAK		21 nM	~5 nM	~5 nM
VLLSRKRRRQHGQLWFPEGFKVSEASKK [Notch1 RAM domain peptide (human Notch1 residues 1754-1781)]		~20 nM	~20 nM	~20 nM
